Results on 1 molecule are retold here after patent US20150044214A1 (Hoffmann-La Roche, published 2015).

This assay has as its target T1, human VEGF-A (human, UniProt P15692-4 27-191).
T1 construct: ELISA methods name 'full-length VEGF165-His protein (R&D Systems)'; Biacore methods name rhVEGF (R&D Systems Cat. No. 293-VE); also called VEGF165; VEGF165-His
As to the kind of experiment: ELISA and Biacore (SPR), incl. simultaneous binding (bridging ELISA, sandwich SPR).

T1 sequence (P15692 other isoform, or with tags, fused parts or gaps limits assumed): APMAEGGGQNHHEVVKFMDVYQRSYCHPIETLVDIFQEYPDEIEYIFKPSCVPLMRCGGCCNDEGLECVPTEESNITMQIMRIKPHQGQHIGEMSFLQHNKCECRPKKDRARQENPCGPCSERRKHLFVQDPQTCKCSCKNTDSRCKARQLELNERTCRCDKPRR

B1: bispecific, tetravalent antigen binding protein recognizing Ang-2 and VEGF-A (bispecific antibody, human IgG1, kappa)
heavy 1: not shown
light 1: QPGLTQPPSVSVAPGQTARITCGGNNIGSKSVHWYQQKPGQAPVLVVYDDSDRPSGIPERFSGSNSGNTATLTISRVEAGDEADYYCQVWDSSSDHYVFGTGTKVTVLRTVAAPSVFIFPPSDEQLKSGTASVVCLLNNFYPREAKVQWKVDNALQSGNSQESVTEQDSKDSTYSLSSTLTLSKADYEKHKVYACEVTHQGLSSPVTKSFNRGEC
heavy 2: not shown
light 2: DIQMTQSPSSLSASVGDRVTITCSASQDISNYLNWYQQKPGKAPKVLIYFTSSLHSGVPSRFSGSGSGTDFTLTISSLQPEDFATYYCQQYSTVPWTFGQGTKVEIKSSASTKGPSVFPLAPSSKSTSGGTAALGCLVKDYFPEPVTVSWNSGALTSGVHTFPAVLQSSGLYSLSSVVTVPSSSLGTQTYICNVNHKPSNTKVDKKVEPKSC
notes: Expressed transiently in HEK293F cells; also called bispecific tetravalent <VEGF-Ang-2> antibody; <Ang-2, VEGF> bispecific tetravalent antibody
Regarding B1, the binding result was “binds”.
